Reference: patent US20220204580A1 (AstraZeneca / MedImmune, published 2022)
Numbered stars: 1 amine (or outer) side, 2 acyl side, 3 side chain; on linkers, the order of the positions; unused ones are H or OH. Bridge positions count the residues as written; N and C are the ends. Square brackets hold non-standard residues; d marks the D form. Side chains are listed from the residue outwards. Ends that are not written are not given here. * marks the point of attachment. C18 diacid = O=C(O)CCCCCCCCCCCCCCCCC(=O)*; γGlu = O=C(O)[C@H](CCC(=O)[*:2])N[*:1]; αMeF = C[C@](N)(Cc1ccccc1)C(=O)O; Aib = CC(C)(N)C(=O)O

T1: human amylin receptor (calcitonin receptor co-expressed with receptor activity modifying protein, RAMP3) (human, UniProt P30988 25-474; O60896 24-148)
T1 sequence (looked up) 1: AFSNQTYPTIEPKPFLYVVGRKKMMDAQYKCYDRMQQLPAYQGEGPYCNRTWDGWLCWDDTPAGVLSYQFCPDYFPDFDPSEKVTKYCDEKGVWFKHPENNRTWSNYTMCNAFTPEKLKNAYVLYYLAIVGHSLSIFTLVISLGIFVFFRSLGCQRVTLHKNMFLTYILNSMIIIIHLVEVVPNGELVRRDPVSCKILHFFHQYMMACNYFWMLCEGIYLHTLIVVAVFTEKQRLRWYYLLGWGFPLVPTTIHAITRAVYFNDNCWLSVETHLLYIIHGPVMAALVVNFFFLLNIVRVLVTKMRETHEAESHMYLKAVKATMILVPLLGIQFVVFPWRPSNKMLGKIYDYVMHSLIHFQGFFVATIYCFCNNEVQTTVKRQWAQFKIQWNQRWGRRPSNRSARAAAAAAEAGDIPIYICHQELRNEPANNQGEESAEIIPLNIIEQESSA
T1 sequence (looked up) 2: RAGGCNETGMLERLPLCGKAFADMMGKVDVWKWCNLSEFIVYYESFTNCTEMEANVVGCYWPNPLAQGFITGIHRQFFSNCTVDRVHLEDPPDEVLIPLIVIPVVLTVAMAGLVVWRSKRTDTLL

T2: human calcitonin receptor (human, UniProt P30988 25-474)
T2 sequence (looked up): T1 sequence (looked up) 1

B1: Peptide 94 (SEQ ID NO: 94) (peptide)
peptide: K([γGlu-C18 diacid])KCNTATCATQRLANFL[Aib]HSSNNFGP[Aib]LPPTNVGSNTY-NH2
modifications: disulfide 3-8; N-terminus assumed
SMILES: CC(C)C[C@H](NC(=O)[C@H](CCCNC(=N)N)NC(=O)[C@H](CCC(N)=O)NC(=O)[C@@H](NC(=O)[C@H](C)NC(=O)[C@@H]1CSSC[C@H](NC(=O)[C@H](CCCCN)NC(=O)[C@@H](N)CCCCNC(=O)CC[C@H](NC(=O)CCCCCCCCCCCCCCCCC(=O)O)C(=O)O)C(=O)N[C@@H](CC(N)=O)C(=O)N[C@@H]([C@@H](C)O)C(=O)N[C@@H](C)C(=O)N[C@@H]([C@@H](C)O)C(=O)N1)[C@@H](C)O)C(=O)N[C@@H](C)C(=O)N[C@@H](CC(N)=O)C(=O)N[C@@H](Cc1ccccc1)C(=O)N[C@@H](CC(C)C)C(=O)NC(C)(C)C(=O)N[C@@H](Cc1c[nH]cn1)C(=O)N[C@@H](CO)C(=O)N[C@@H](CO)C(=O)N[C@@H](CC(N)=O)C(=O)N[C@@H](CC(N)=O)C(=O)N[C@@H](Cc1ccccc1)C(=O)NCC(=O)N1CCC[C@H]1C(=O)NC(C)(C)C(=O)N[C@@H](CC(C)C)C(=O)N1CCC[C@H]1C(=O)N1CCC[C@H]1C(=O)N[C@H](C(=O)N[C@@H](CC(N)=O)C(=O)N[C@H](C(=O)NCC(=O)N[C@@H](CO)C(=O)N[C@@H](CC(N)=O)C(=O)N[C@H](C(=O)N[C@@H](Cc1ccc(O)cc1)C(N)=O)[C@@H](C)O)C(C)C)[C@@H](C)O
B2: Peptide 95 (SEQ ID NO: 95) (peptide)
peptide: K([γGlu-C18 diacid])KCNTATCATQRLANFL[Aib]HSSNNFGPI[Aib]PPTNVGSNTY-NH2
modifications: disulfide 3-8; N-terminus assumed
SMILES: CC[C@H](C)[C@H](NC(=O)[C@@H]1CCCN1C(=O)CNC(=O)[C@H](Cc1ccccc1)NC(=O)[C@H](CC(N)=O)NC(=O)[C@H](CC(N)=O)NC(=O)[C@H](CO)NC(=O)[C@H](CO)NC(=O)[C@H](Cc1c[nH]cn1)NC(=O)C(C)(C)NC(=O)[C@H](CC(C)C)NC(=O)[C@H](Cc1ccccc1)NC(=O)[C@H](CC(N)=O)NC(=O)[C@H](C)NC(=O)[C@H](CC(C)C)NC(=O)[C@H](CCCNC(=N)N)NC(=O)[C@H](CCC(N)=O)NC(=O)[C@@H](NC(=O)[C@H](C)NC(=O)[C@@H]1CSSC[C@H](NC(=O)[C@H](CCCCN)NC(=O)[C@@H](N)CCCCNC(=O)CC[C@H](NC(=O)CCCCCCCCCCCCCCCCC(=O)O)C(=O)O)C(=O)N[C@@H](CC(N)=O)C(=O)N[C@@H]([C@@H](C)O)C(=O)N[C@@H](C)C(=O)N[C@@H]([C@@H](C)O)C(=O)N1)[C@@H](C)O)C(=O)NC(C)(C)C(=O)N1CCC[C@H]1C(=O)N1CCC[C@H]1C(=O)N[C@H](C(=O)N[C@@H](CC(N)=O)C(=O)N[C@H](C(=O)NCC(=O)N[C@@H](CO)C(=O)N[C@@H](CC(N)=O)C(=O)N[C@H](C(=O)N[C@@H](Cc1ccc(O)cc1)C(N)=O)[C@@H](C)O)C(C)C)[C@@H](C)O
B3: Peptide 96 (SEQ ID NO: 96) (peptide)
peptide: K([γGlu-C18 diacid])KCNTATCATQRLANFL[Aib]HSSNNFGPIL[Aib]PTNVGSNTY-NH2
modifications: disulfide 3-8; N-terminus assumed
SMILES: CC[C@H](C)[C@H](NC(=O)[C@@H]1CCCN1C(=O)CNC(=O)[C@H](Cc1ccccc1)NC(=O)[C@H](CC(N)=O)NC(=O)[C@H](CC(N)=O)NC(=O)[C@H](CO)NC(=O)[C@H](CO)NC(=O)[C@H](Cc1c[nH]cn1)NC(=O)C(C)(C)NC(=O)[C@H](CC(C)C)NC(=O)[C@H](Cc1ccccc1)NC(=O)[C@H](CC(N)=O)NC(=O)[C@H](C)NC(=O)[C@H](CC(C)C)NC(=O)[C@H](CCCNC(=N)N)NC(=O)[C@H](CCC(N)=O)NC(=O)[C@@H](NC(=O)[C@H](C)NC(=O)[C@@H]1CSSC[C@H](NC(=O)[C@H](CCCCN)NC(=O)[C@@H](N)CCCCNC(=O)CC[C@H](NC(=O)CCCCCCCCCCCCCCCCC(=O)O)C(=O)O)C(=O)N[C@@H](CC(N)=O)C(=O)N[C@@H]([C@@H](C)O)C(=O)N[C@@H](C)C(=O)N[C@@H]([C@@H](C)O)C(=O)N1)[C@@H](C)O)C(=O)N[C@@H](CC(C)C)C(=O)NC(C)(C)C(=O)N1CCC[C@H]1C(=O)N[C@H](C(=O)N[C@@H](CC(N)=O)C(=O)N[C@H](C(=O)NCC(=O)N[C@@H](CO)C(=O)N[C@@H](CC(N)=O)C(=O)N[C@H](C(=O)N[C@@H](Cc1ccc(O)cc1)C(N)=O)[C@@H](C)O)C(C)C)[C@@H](C)O
B4: Peptide 11 (SEQ ID NO: 11) (peptide)
peptide: K([γGlu-γGlu-C18 diacid])CNTATCATQRLAEFLRHSSNN[αMeF]GPILPPTNVGSNTY-NH2
modifications: disulfide 2-7; N-terminus assumed
SMILES: CC[C@H](C)[C@H](NC(=O)[C@@H]1CCCN1C(=O)CNC(=O)[C@](C)(Cc1ccccc1)NC(=O)[C@H](CC(N)=O)NC(=O)[C@H](CC(N)=O)NC(=O)[C@H](CO)NC(=O)[C@H](CO)NC(=O)[C@H](Cc1c[nH]cn1)NC(=O)[C@H](CCCNC(=N)N)NC(=O)[C@H](CC(C)C)NC(=O)[C@H](Cc1ccccc1)NC(=O)[C@H](CCC(=O)O)NC(=O)[C@H](C)NC(=O)[C@H](CC(C)C)NC(=O)[C@H](CCCNC(=N)N)NC(=O)[C@H](CCC(N)=O)NC(=O)[C@@H](NC(=O)[C@H](C)NC(=O)[C@@H]1CSSC[C@H](NC(=O)[C@@H](N)CCCCNC(=O)CC[C@H](NC(=O)CC[C@H](NC(=O)CCCCCCCCCCCCCCCCC(=O)O)C(=O)O)C(=O)O)C(=O)N[C@@H](CC(N)=O)C(=O)N[C@@H]([C@@H](C)O)C(=O)N[C@@H](C)C(=O)N[C@@H]([C@@H](C)O)C(=O)N1)[C@@H](C)O)C(=O)N[C@@H](CC(C)C)C(=O)N1CCC[C@H]1C(=O)N1CCC[C@H]1C(=O)N[C@H](C(=O)N[C@@H](CC(N)=O)C(=O)N[C@H](C(=O)NCC(=O)N[C@@H](CO)C(=O)N[C@@H](CC(N)=O)C(=O)N[C@H](C(=O)N[C@@H](Cc1ccc(O)cc1)C(N)=O)[C@@H](C)O)C(C)C)[C@@H](C)O
B5: Peptide 97 (SEQ ID NO: 97) (peptide)
peptide: K([γGlu-C18 diacid])KCNTATCATQRLANFL[Aib]HSSNNFGPILP[Aib]TNVGSNTY-NH2
modifications: disulfide 3-8; N-terminus assumed
SMILES: CC[C@H](C)[C@H](NC(=O)[C@@H]1CCCN1C(=O)CNC(=O)[C@H](Cc1ccccc1)NC(=O)[C@H](CC(N)=O)NC(=O)[C@H](CC(N)=O)NC(=O)[C@H](CO)NC(=O)[C@H](CO)NC(=O)[C@H](Cc1c[nH]cn1)NC(=O)C(C)(C)NC(=O)[C@H](CC(C)C)NC(=O)[C@H](Cc1ccccc1)NC(=O)[C@H](CC(N)=O)NC(=O)[C@H](C)NC(=O)[C@H](CC(C)C)NC(=O)[C@H](CCCNC(=N)N)NC(=O)[C@H](CCC(N)=O)NC(=O)[C@@H](NC(=O)[C@H](C)NC(=O)[C@@H]1CSSC[C@H](NC(=O)[C@H](CCCCN)NC(=O)[C@@H](N)CCCCNC(=O)CC[C@H](NC(=O)CCCCCCCCCCCCCCCCC(=O)O)C(=O)O)C(=O)N[C@@H](CC(N)=O)C(=O)N[C@@H]([C@@H](C)O)C(=O)N[C@@H](C)C(=O)N[C@@H]([C@@H](C)O)C(=O)N1)[C@@H](C)O)C(=O)N[C@@H](CC(C)C)C(=O)N1CCC[C@H]1C(=O)NC(C)(C)C(=O)N[C@H](C(=O)N[C@@H](CC(N)=O)C(=O)N[C@H](C(=O)NCC(=O)N[C@@H](CO)C(=O)N[C@@H](CC(N)=O)C(=O)N[C@H](C(=O)N[C@@H](Cc1ccc(O)cc1)C(N)=O)[C@@H](C)O)C(C)C)[C@@H](C)O
B6: Peptide 98 (SEQ ID NO: 98) (peptide)
peptide: K([γGlu-C18 diacid])KCNTATCATQRLANFL[Aib]HSSNNFGPILPPT[Aib]VGSNTY-NH2
modifications: disulfide 3-8; N-terminus assumed
SMILES: CC[C@H](C)[C@H](NC(=O)[C@@H]1CCCN1C(=O)CNC(=O)[C@H](Cc1ccccc1)NC(=O)[C@H](CC(N)=O)NC(=O)[C@H](CC(N)=O)NC(=O)[C@H](CO)NC(=O)[C@H](CO)NC(=O)[C@H](Cc1c[nH]cn1)NC(=O)C(C)(C)NC(=O)[C@H](CC(C)C)NC(=O)[C@H](Cc1ccccc1)NC(=O)[C@H](CC(N)=O)NC(=O)[C@H](C)NC(=O)[C@H](CC(C)C)NC(=O)[C@H](CCCNC(=N)N)NC(=O)[C@H](CCC(N)=O)NC(=O)[C@@H](NC(=O)[C@H](C)NC(=O)[C@@H]1CSSC[C@H](NC(=O)[C@H](CCCCN)NC(=O)[C@@H](N)CCCCNC(=O)CC[C@H](NC(=O)CCCCCCCCCCCCCCCCC(=O)O)C(=O)O)C(=O)N[C@@H](CC(N)=O)C(=O)N[C@@H]([C@@H](C)O)C(=O)N[C@@H](C)C(=O)N[C@@H]([C@@H](C)O)C(=O)N1)[C@@H](C)O)C(=O)N[C@@H](CC(C)C)C(=O)N1CCC[C@H]1C(=O)N1CCC[C@H]1C(=O)N[C@H](C(=O)NC(C)(C)C(=O)N[C@H](C(=O)NCC(=O)N[C@@H](CO)C(=O)N[C@@H](CC(N)=O)C(=O)N[C@H](C(=O)N[C@@H](Cc1ccc(O)cc1)C(N)=O)[C@@H](C)O)C(C)C)[C@@H](C)O

Target: T1, human amylin receptor (calcitonin …)
Test: cell-based or functional assay

Compared with B1, B2 is 2.1-fold higher in “EC50 (cAMP production)” value: 0.322 nM for the first, 0.691 nM for the second.

First: B3
Second: B4
The “EC50 (cAMP production)” value of the first is 3.1-fold higher: 0.556 nM for the first, 0.177 nM for the second.

B5 and B6 are within 1.5-fold of each other in “EC50 (cAMP production)” value: 0.684 nM for the first, 0.942 nM for the second.

Compared with B1, B2 is lower in “Ratio (EC50 hCTR / EC50 hAMYR3)” value: 6 for the first, 2 for the second.

Compared with B3, B4 is higher in “Ratio (EC50 hCTR / EC50 hAMYR3)” value: 2 for the first, 21 for the second.

B5 and B6 are the same in “Ratio (EC50 hCTR / EC50 hAMYR3)” value: 1 for the first, 1 for the second.

Target: T2, human calcitonin receptor
Test: cell-based or functional assay

Compared with B1, B2 is 1.6-fold lower in “EC50 (cAMP production)” value: 1.9 nM for the first, 1.17 nM for the second.

Going from B3 to B4, the “EC50 (cAMP production)” value rises from 0.859 nM to 3.64 nM (4.2-fold).

B5 and B6 are within 1.5-fold of each other in “EC50 (cAMP production)” value: 0.944 nM for the first, 0.972 nM for the second.
